The chains are these.
B1: Hairpin Ribozyme (parent)
chain: GUCCUCUUUCACGUGCGCGUGAAAGAGAGAAGUGAACCAGAGAAACACACGUUGUGGUAUAUUACCUGGUA

Variants of B1 are the subject of the data set. The data set can be described thus: self-cleavage, relative activity (ratio to wild type); higher = more cleavage; co-transcriptional.
GUCCUCUUUCACGUGCGCGUGAAAGAGAGAUGUGAACCAGAGAAACGCACGUUGUGGUAUAUUACCUGGUA [A31U A47G]: the self-cleavage amounted to 0.101. With GUCCUCUUUCACGUGCGCGUGAAAGAGAGAGGUGAACCAGAGAAACACACGUUGUGGUAUAAUACCUGGUA [A31G U62A], the self-cleavage is 0.127. As for GUCCUCUUUCACGUGCGCGUGAAAGAGAGAUGUGAAGCAGAGAAACACACGUUGUGGUAUAUUACCUGGUA [A31U C37G], the figure is 0.237. As for GUCCUCUUUCACGUGCGCGUGAAAGAGAGAAAUGAACGAGAGAAACACACGUUGUGGUAUAUUACCUGGUA [G32A C38G], the self-cleavage was 0.1.

In the case of GUCCUCUUUCACGUGCGCGUGAAAGAGAGAAAUGAACCAGAGAAAUACACGUUGUGGUAUAUUACCUGGUA [G32A C46U], the self-cleavage was found to be 0.148. With GUCCUCUUUCACGUGCGCGUGAAAGAGAGAAAUGAACCAGAGAAAGACACGUUGUGGUAUAUUACCUGGUA [G32A C46G] the figure was 0.103; with GUCCUCUUUCACGUGCGCGUGAAAGAGAGAAAUGAACCAGAGAAACACACGUUGUGGUAAAUUACCUGGUA [G32A U60A], 0.191; with GUCCUCUUUCACGUGCGCGUGAAAGAGAGAAAUGAACCAGAGAAACACACGUUGUGGUUUAUUACCUGGUA [G32A A59U], 0.167. Take GUCCUCUUUCACGUGCGCGUGAAAGAGAGAUGUGAACCAGAGAAACACACGUUGUGGUAUACUACCUGGUA [A31U U62C]: the self-cleavage was 0.147.

Regarding GUCCUCUUUCACGUGCGCGUGAAAGAGAGAUGUGAACCAGAGAAACACACGUUGUGGUAUAGUACCUGGUA [A31U U62G], the self-cleavage is 0. As to GUCCUCUUUCACGUGCGCGUGAAAGAGAGAAAUGAACCAGUGAAACACACGUUGUGGUAUAUUACCUGGUA [G32A A41U], the self-cleavage came to 0.396. On to GUCCUCUUUCACGUGCGCGUGAAAGAGAGAUGUGAACCAGAGCAACACACGUUGUGGUAUAUUACCUGGUA [A31U A43C], for which the self-cleavage stood at 0.169. As for GUCCUCUUUCACGUGCGCGUGAAAGAGAGAGGUGAACCAGAGAAACACACGUUGUGGUACAUUACCUGGUA [A31G U60C], the figure is 0.836; as for GUCCUCUUUCACGUGCGCGUGAAAGAGAGAAAUGAACCAGAGAAACACACGUUGUGGUAUAUUCCCUGGUA [G32A A64C], 0.14. Regarding GUCCUCUUUCACGUGCGCGUGAAAGAGAGAAAUGAACCAGAGAAACACACGUUGUGGUAUAUUACCUGCUA [G32A G69C], the self-cleavage came to 0.163. As for GUCCUCUUUCACGUGCGCGUGAAAGAGAGAUGUGAACCAGAGAAACACACGUUGUGAUAUAUUACCUGGUA [A31U G57A], the figure is 0.169; as for GUCCUCUUUCACGUGCGCGUGAAAGAGAGAUGUGAACCAGAGAAACACACGUUGUGCUAUAUUACCUGGUA [A31U G57C], 0.155; as for GUCCUCUUUCACGUGCGCGUGAAAGAGAGAUGUGAACCAGAGAAACACACGUUGUGUUAUAUUACCUGGUA [A31U G57U], 0.216. With GUCCUCUUUCACGUGCGCGUGAAAGAGAGAUGUGUACCAGAGAAACACACGUUGUGGUAUAUUACCUGGUA [A31U A35U] the figure was 0.162. In the case of GUCCUCUUUCACGUGCGCGUGAAAGAGAGAUGUGCACCAGAGAAACACACGUUGUGGUAUAUUACCUGGUA [A31U A35C], the self-cleavage turned out to be 0.185. With GUCCUCUUUCACGUGCGCGUGAAAGAGAGAAAUGAACCAGAGAAACACACGUUGUGCUAUAUUACCUGGUA [G32A G57C] the figure was 0.117. As for GUCCUCUUUCACGUGCGCGUGAAAGAGAGAGGUGAACCAGAGAAACACACGUUGUGGUAUAUUACCCGGUA [A31G U67C], the figure is 0.118; as for GUCCUCUUUCACGUGCGCGUGAAAGAGAGAACUGAGCCAGAGAAACACACGUUGUGGUAUAUUACCUGGUA [G32C A36G], 0.0754. As for GUCCUCUUUCACGUGCGCGUGAAAGAGAGAACUGAUCCAGAGAAACACACGUUGUGGUAUAUUACCUGGUA [G32C A36U], the figure is 0.136; as for GUCCUCUUUCACGUGCGCGUGAAAGAGAGAUGUGAACCAGAGAAACACACGUUGUGGUAUAUUACCUGAUA [A31U G69A], 0.182. For GUCCUCUUUCACGUGCGCGUGAAAGAGAGAUGUGAACCAGAGAAACACACGUUGUGGUAAAUUACCUGGUA [A31U U60A], the self-cleavage amounted to 0.0868.

With GUCCUCUUUCACGUGCGCGUGAAAGAGAGAUGUGAACCAGAGAAACACACGUUGUGGUAUAUUACCUAGUA [A31U G68A], the self-cleavage was 0.157. Take GUCCUCUUUCACGUGCGCGUGAAAGAGAGAUGUGAACCAGAGAAACACACCUUGUGGUAUAUUACCUGGUA [A31U G51C]: the self-cleavage worked out at 0.15. As for GUCCUCUUUCACGUGCGCGUGAAAGAGAGAUGUGAACCAGAGAAACACACGUUGUGGUAUAUUACUUGGUA [A31U C66U], the figure is 0.0749; as for GUCCUCUUUCACGUGCGCGUGAAAGAGAGAUGUGAACCAGAGAAACACACGUUGUGGUAUAUUACAUGGUA [A31U C66A], 0.3; as for GUCCUCUUUCACGUGCGCGUGAAAGAGAGAUGUGAACCAGAGAAACACACGUUGUGGUAUAUUACCUGGAA [A31U U70A], 0.0877.

In the case of GUCCUCUUUCACGUGCGCGUGAAAGAGAGAAAUGAACCAGAGAAACACACGUUGUGGUAUAUAACCUGGUA [G32A U63A], the self-cleavage was determined as 0.132. With GUCCUCUUUCACGUGCGCGUGAAAGAGAGAUGUGAACCAGAGAAACACACGUUGUGGUAUAUUGCCUGGUA [A31U A64G] the figure was 0.0407; with GUCCUCUUUCACGUGCGCGUGAAAGAGAGAUGUGAACCAGAGAAACACACGUUGUGGCAUAUUACCUGGUA [A31U U58C], 0. With GUCCUCUUUCACGUGCGCGUGAAAGAGAGAAAUGAACCAGAGAAACACCCGUUGUGGUAUAUUACCUGGUA [G32A A49C] the figure was 0.0198. For the variant GUCCUCUUUCACGUGCGCGUGAAAGAGAGAAAUGAACCAGAGAAACACUCGUUGUGGUAUAUUACCUGGUA [G32A A49U], the self-cleavage is 0.0556. As for GUCCUCUUUCACGUGCGCGUGAAAGAGAGAGGUGAACCAGAGAAACACACGUUGUGGUAUAUUACCUGGAA [A31G U70A], the figure is 0.509.

For GUCCUCUUUCACGUGCGCGUGAAAGAGAGAAAUAAACCAGAGAAACACACGUUGUGGUAUAUUACCUGGUA [G32A G34A], the self-cleavage was determined as 0.07.

The values are drawn from the RNAGym collection of RNA variant scans (doi:10.7554/elife.80360).
